Source: article PMC9974095, “TP63 gain-of-function mutations cause premature ovarian insufficiency by inducing oocyte apoptosis” (The Journal of Clinical Investigation, 2023)
Numbering of substitutions follows the chain as printed. In names and notes the source's numbering stands. Several values for one entry are separate records, joined by “and”; a condition that tells them apart may be missing. Equal values may be shown once.

B1: TAp63α (human TP63), wild type (natural protein, UniProt Q9H3D4-1 1-680, looked up)
chain: MNFETSRCATLQYCPDPYIQRFVETPAHFSWKESYYRSTMSQSTQTNEFLSPEVFQHIWDFLEQPICSVQPIDLNFVDEPSEDGATNKIEISMDCIRMQDSDLSDPMWPQYTNLGLLNSMDQQIQNGSSSTSPYNTDHAQNSVTAPSPYAQPSSTFDALSPSPAIPSNTDYPGPHSFDVSFQQSSTAKSATWTYSTELKKLYCQIAKTCPIQIKVMTPPPQGAVIRAMPVYKKAEHVTEVVKRCPNHELSREFNEGQIAPPSHLIRVEGNSHAQYVEDPITGRQSVLVPYEPPQVGTEFTTVLYNFMCNSSCVGGMNRRPILIIVTLETRDGQVLGRRCFEARICACPGRDRKADEDSIRKQQVSDSTKNGDGTKRPFRQNTHGIQMTSIKKRRSPDDELLYLPVRGRETYEMLLKIKESLELMQYLPQHTIETYRQQQQQQHQHLLQKQTSIQSPSSYGNSSPPLNKMNSMNKLPSVSQLINPQQRNALTPTTIPDGMGANIPMMGTHMPMAGDMNGLSPTQALPPPLSMPSTSHCTPPPPYPTDCSIVSFLARLGCSSCLDYFTTQGLTTIYQIEHYSMDDLASLKIPEQFRHAIWKGILDHRQLHEFSSPSHLLRTPSSASTVSVGSSETRGERVIDAVRFTLRQTISFPPRDEWNDFNFDMDARRNKQQRIKEEGE
notes: human p63, isoform TAp63α; variants are numbered on NM_003722.5; also called WT TAp63α; source: SAOS-2, transfected (pcDNA3.1-TP63), MG132-treated, in lysate
B2: TAp63α p.R643Q (natural protein, human, UniProt Q9H3D4-1 1-680, looked up)
chain: B1 chain with R643Q
notes: Variant found in a patient with POI; source: SAOS-2, transfected, MG132-treated, in lysate
B3: TAp63α p.T567I (natural protein, human, UniProt Q9H3D4-1 1-680, looked up)
chain: B1 chain with T567I
notes: human TAp63α with the patient variant p.T567I (SAM domain), numbered on NM_003722.5; made from pcDNA3.1-TP63 by site-directed mutagenesis; Variant found in a patient with POI; source: SAOS-2, transfected, MG132-treated, in lysate
B4: TAp63α p.T538A (natural protein, human, UniProt Q9H3D4-1 1-680, looked up)
chain: B1 chain with T538A
notes: human TAp63α with the patient variant p.T538A, numbered on NM_003722.5; made from pcDNA3.1-TP63 by site-directed mutagenesis; Variant found in a patient with POI; source: SAOS-2, transfected, MG132-treated, in lysate
B5: TAp63α p.R655Q (natural protein, human, UniProt Q9H3D4-1 1-680, looked up)
chain: B1 chain with R655Q
notes: as for B2
B6: TAp63α p.L646P (natural protein, human, UniProt Q9H3D4-1 1-680, looked up)
chain: B1 chain with L646P
notes: as for B2
B7: TAp63α p.R647C (natural protein, human, UniProt Q9H3D4-1 1-680, looked up)
chain: B1 chain with R647C
notes: Variant found in three patients with POI; source: SAOS-2, transfected, MG132-treated, in lysate
B8: TAp63α p.S285N (natural protein, human, UniProt Q9H3D4-1 1-680, looked up)
chain: B1 chain with S285N
notes: made from pcDNA3.1-TP63 by site-directed mutagenesis; Variant found in a patient with POI; source: SAOS-2, transfected, MG132-treated, in lysate
B9: TAp63α p.R594* (domain or fragment, human, UniProt Q9H3D4-1 1-593, looked up)
chain: MNFETSRCATLQYCPDPYIQRFVETPAHFSWKESYYRSTMSQSTQTNEFLSPEVFQHIWDFLEQPICSVQPIDLNFVDEPSEDGATNKIEISMDCIRMQDSDLSDPMWPQYTNLGLLNSMDQQIQNGSSSTSPYNTDHAQNSVTAPSPYAQPSSTFDALSPSPAIPSNTDYPGPHSFDVSFQQSSTAKSATWTYSTELKKLYCQIAKTCPIQIKVMTPPPQGAVIRAMPVYKKAEHVTEVVKRCPNHELSREFNEGQIAPPSHLIRVEGNSHAQYVEDPITGRQSVLVPYEPPQVGTEFTTVLYNFMCNSSCVGGMNRRPILIIVTLETRDGQVLGRRCFEARICACPGRDRKADEDSIRKQQVSDSTKNGDGTKRPFRQNTHGIQMTSIKKRRSPDDELLYLPVRGRETYEMLLKIKESLELMQYLPQHTIETYRQQQQQQHQHLLQKQTSIQSPSSYGNSSPPLNKMNSMNKLPSVSQLINPQQRNALTPTTIPDGMGANIPMMGTHMPMAGDMNGLSPTQALPPPLSMPSTSHCTPPPPYPTDCSIVSFLARLGCSSCLDYFTTQGLTTIYQIEHYSMDDLASLKIPEQF
notes: human TAp63α with the nonsense variant p.R594* (stop at codon 594, in the SAM domain; truncates the protein prior to the TID), numbered on NM_003722.5; Nonsense variant found in a patient with POI; lacks the TID; source: SAOS-2, transfected, MG132-treated, in lysate
B10: mouse p63ΔTID (domain or fragment, UniProt O88898-1 1-609, looked up)
chain: MNFETSRCATLQYCPDPYIQRFIETPAHFSWKESYYRSAMSQSTQTSEFLSPEVFQHIWDFLEQPICSVQPIELNFVDEPSENGATNKIEISMDCIRMQDSDLSDPMWPQYTNLGLLNSMDQQIQNGSSSTSPYNTDHAQNSVTAPSPYAQPSSTFDALSPSPAIPSNTDYPGPHSFDVSFQQSSTAKSATWTYSTELKKLYCQIAKTCPIQIKVMTPPPQGAVIRAMPVYKKAEHVTEVVKRCPNHELSREFNEGQIAPPSHLIRVEGNSHAQYVEDPITGRQSVLVPYEPPQVGTEFTTVLYNFMCNSSCVGGMNRRPILIIVTLETRDGQVLGRRCFEARICACPGRDRKADEDSIRKQQVSDSAKNGDGTKRPFRQNTHGIQMTSIKKRRSPDDELLYLPVRGRETYEMLLKIKESLELMQYLPQHTIETYRQQQQQQHQHLLQKQTSMQSQSSYGNSSPPLNKMNSMNKLPSVSQLINPQQRNALTPTTMPEGMGANIPMMGTHMPMAGDMNGLSPTQALPPPLSMPSTSHCTPPPPYPTDCSIVSFLARLGCSSCLDYFTTQGLTTIYQIEHYSMDDLASLKIPEQFRHAIWKGILDHRQLHD
notes: mouse p63 (TAp63α) without the TID; the mouse allele of the same name carries c.1828_1829insGA (p.F610*, NM_001127259.1), a stop codon prior to the TID; also called mutant p63ΔTID

Molecular target: the molecule itself
Assay: native gel or EMSA; BN-PAGE (NativePAGE 3%-12% Bis-Tris) of lysates of transfected SAOS-2 cells treated with 10 uM MG132 for 12 h; blot with anti-p63
Settings: not given

| Molecule | stoichiometry N |
| --- | --- |
| B1 | 2 |
| B2 | 4 |
| B3 | 2 |
| B4 | 2 |
| B5 | 4 and 2 |
| B6 | 4 |
| B7 | 4 |
| B8 | 2 |
| B9 | 4 |
| B10 | 4 |

molecular target: TAp63α p.Q568fs*3 (human) (UniProt Q9H3D4); assay: as above; settings: not given

| Molecule | stoichiometry N |
| --- | --- |
| TAp63α p.Q568fs*3 (from UniProt Q9H3D4-1 1-567) (domain or fragment) | 4 |

molecular target: TAp63αΔTID; assay: co-IP (anti-p63 IP, GFP Western blot, quantified); settings: HEK293 cells cotransfected with TAp63αΔTID and GFP-TID plasmids; 3 independent experiments; parent: est. 6.4; read off a plot

| Molecule | response [% Input] |
| --- | --- |
| GFP-TID, wild type L646P | 0.58 |
| GFP-TID, wild type R643Q | 2.4 |
| GFP-TID, wild type R647C | 3.5 |
| GFP-TID, wild type R655Q | 2.8 |
